Reference: publication PMC4325325

Test system: RcsB
Experiment: EMSA

| Substance | K half [ng per 16 µL] |
| --- | --- |
| hmsC (hmsCDE/hmsD) promoter, wild-type RcsAAB box | 800 |
| lcrQ promoter | > 2000 |
